{
  "source": "paper PMC6867900",
  "about": "“The Cyclic AMP Receptor Protein Regulates Quorum Sensing and Global Gene Expression in Yersinia pestis during Planktonic Growth and Growth in Biofilms” (mBio, 2019)",
  "biological_target": "the molecule itself",
  "assay": "crystal structure",
  "data": [
    {"protein": "Yersinia pestis cyclic AMP (cAMP) receptor protein (Crp) (natural protein, also called Y. pestis Crp) MVLGKPQTDPTLEWFLSHCHIHKYPSKSTLIHQGEKAETLYYIVKGSVAVLIKDEEGKEMILSYLNQGDFIGELGLFEEGQERSAWVRAKTACEVAEISYKKFRQLIQVNPDILMRLSSQMANRLQITSEKVGNLAFLDVTGRIAQTLLNLAKQPDAMTHPDGMQIKITRQEIGQIVGCSRETVGRILKMLEDQNLISAHGKTIVVYGTR", "values": [
      {"measurement": "stoichiometry N", "value": 2}
    ]}
  ]
}
